Read-outs that look alike come from different tables or passages of the source.

Results on one molecule are retold here after patent US8785391B2, “Compound and method for treatment of alzheimer's disease and familial dementia” (Alphabeta AB, priority 2010, dated 2014).

Common to all, as to type: biochemical
The target in series [1] is T1, Aβ1-40 (Homo sapiens, UniProt P05067).
T1 construct: made in house; host or cells: E. coli
From the text:
(§1) Aβ1-40 (SEQ ID NO: 11) and Aβ1-42 (SEQ ID NO: 12) were expressed in E. coli from synthetic genes and purified in batch format using ion exchange and size exclusion steps as described in Walsh et al., FEBS J. 2009, 276, 1266-1281, which results in highly pure monomeric peptide. Purified peptide was divided into 20-30 identical aliquots and frozen. Monomer was then isolated by gel filtration of an aliquot of purified peptide just prior to setting up each of the experiments listed below to remove traces of aggregate formed during freezing and thawing and to exchange buffer to the one used in the respective experiment. Monomer was collected in low-bind Ep-tubes ([…]) on ice, and the concentration was determined by absorbance or amino acid analysis after acid hydrolysis. The monomer was used as is or diluted to the desired concentration for the respective experiment. Bri2(90-236) (SEQ ID NO: 2) was expressed and purified as described in Example 1. Aggregation kinetics were studied by recording the Thioflavin T (ThT) fluorescence intensity as a function of time in a plate reader (FluoStar Omega from BMG Labtech, Offenberg, Germany). The fluorescence was recorded using bottom optics in half-area 96-well PEG-coated black polystyrene plates with clear bottom (Corning 3881) using 440 nm excitation filter and 480 nm emission filter. Aβ monomer was isolated by gel filtration as above in 20 mM Na-phosphate, 200 μM EDTA, 0.02% NaN3 (at pH 7.4 in the case of Aβ1-40 and at pH 8.0 for Aβ1-42) and diluted to 6 or 8 μM in the case of Aβ1-40 and 3 μM in the case of Aβ1-42 in the same buffer and supplemented with 20 μM ThT from a 2 mM stock. To each well in the 96-well plate was first added either 10 μl buffer (20 mM Tris/HCl pH 7.4) or 10 μl of Bri2(90-236) protein or control protein at ten times the desired final concentration in 20 mM Tris/HCl pH 7.4. To each well was then added 90 μl of the ice-cold Aβ monomer solution, and the plate was immediately placed in the plate reader at 37° C., with fluorescence read every 6 minutes with continuous shaking at 100 rpm between readings. Aβ1-40 was studied alone or with Bri2(90-236) at a concentration ranging from 60 nM to 6 μM. Aβ1-42 was studied alone or with Bri2(90-236) at a concentration ranging from 20 nM to 6 μM.

For series [2], the target named is T1, Aβ1-40. Kind of series: SDS-PAGE of supernatants, soluble Aβ1-40. To be noted: co-incubation with 25 μM Aβ1-40, 37° C., 3 weeks incubation, centrifugation at 3300 g. As to the method: (§2) […] Aβ1-40 was dissolved in 100% DMSO to 250 μM stock solution, which was diluted to working concentrations. For Thioflavin T (ThT) fluorescence measurements, 10 μl aliquots were removed at different time points, 10 μM ThT (Aldrich) added, and fluorescence was measured with a […] fluorescence plate reader (GE Healthcare), emission wavelength is 480 nm, excitation wavelength 440 nm. Measurements of ThT were done in duplicates. For analysis of soluble Aβ1-40 and ultrastructure of Aβ aggregates, aliquots were removed and centrifuged at 3300 g for 9 min. The supernatant was analyzed by SDS-PAGE and pellets were resuspended in 200 μl distilled water, 2 μl of the resuspension was added onto 200 mesh copper electron microscopy grids, stained with 2% uranyl acetate for 30 s, then left to dry at 20° C. A Hitachi H 7100 microscope operated at 75 kV was used for examination and photographing.

The next series deals with T2, Aβ1-42 (Homo sapiens, UniProt P05067).
T2 construct: made in house; host or cells: E. coli
T2 sequence (P05067 672-713): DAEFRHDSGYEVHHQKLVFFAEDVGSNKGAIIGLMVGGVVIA
Kind of series: ThT aggregation kinetics of Aβ1-42 (Example 4).
Description: as §1, with “Aβ1-40 was studied alone or with Bri2(90-236) at a concentration ranging from 60 nM to 6 μM. Aβ1-42 was studied alone or with Bri2(90-236) at a concentration ranging from 20 nM to 6 μM.” left out

The target of series [3] is T1, Aβ1-40. The series can be described thus: Electron microscopy of Aβ1-40 pellets. To be noted: co-incubation with Aβ1-40, 1:1 molar ratio, 5 days. As to the method:
as §2

T1 sequence (P05067 672-711): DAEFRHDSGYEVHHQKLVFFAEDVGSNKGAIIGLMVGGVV

B1: Bri2(90-236): recombinant protein of residues 90-236 of human Bri2 (SEQ ID NO: 2), encompassing the Brichos domain, expressed in E. coli (protein, listed as Homo sapiens)
chain: GIKYIKDDVILNEPSADAPAALYQTIEENIKIFEEEEVEFISVPVPEFADSDPANIVHDFNKKLTAYLDLNLDKCYVIPLNTSIVMPPRNLLELLINIKAGTYLPQSYLIHEHMVITDRIENIDHLGFFIYRLCHDKETYKLQRRET
For B1, the “prolongation of half time of Aβ1-40 aggregation” value with Aβ1-40 [1] (170 nM Bri2(90-236), relative to 6 μM Aβ1-40 alone) is “approximately 4.5 times”. The “lag time of Aβ1-40 aggregation” value with Aβ1-40 [1] (0.01 or 0.03 molar equivalents of Bri2(90-236), far below equimolar) is recorded as “increases extensively”; with Aβ1-40 [1] (above a molar ratio of 0.1 (1 Bri2(90-236) per 10 Aβ1-40 molecules)) it was “exceeds one week”. In addition, in the series with Aβ1-40 [1] (in the presence of Bri2(90-236)), the “elongation rate of Aβ1-40 aggregation” value is on record as “largely unaffected”. The “Aβ1-40 in solution (SDS-PAGE of supernatants)” value in the series with Aβ1-40 [2] is “staying in solution”. In addition, in the series with Aβ1-42 (3 μM Aβ1-42, molar ratio of 0.1 (1 Bri2(90-236) per 10 Aβ1-42), compared to the undisturbed case), the “lag time of Aβ1-42 aggregation” value was “doubled”. In addition, in the series with Aβ1-42 (3 μM Aβ1-42, molar ratio of 0.1, compared to the undisturbed case), the “half time of Aβ1-42 aggregation” value is “doubled”. Moreover, in the series with Aβ1-40 [3], the “amount of Aβ1-40 amyloid-like fibrils in pellets (electron microscopy)” value is recorded as “lower amounts of fibrils”.
